B1: anti-idiotypic antibody 8A3 (antibody, V domains shown)
VH: QVQLQQSGAELAKPGASVKMSCKASGYNFTTYWMHWVKQRPGQGLEWIGYINPSTDYTEYNQKFKYKATLTADKSSSTAYIQLSSLTSEDSAVYYCARWWDYDWYFDVWGAGTPLTVSS
VL: DIVMTQSQEFMSTSVGDRVSVTCKASQTVDTNVAWYQQKLGQSPKPLIYSASYRCSGVPDRFTGSGSRTDFTLTITNVQSEDLAEYFCQQYHSFPWTFGGGTKVEIKR
notes: Murine monoclonal antibody raised against 2H7.v16; It was biotinylated when used as detection antibody and unlabeled when coated; also called MAb 8A3; 8A3-bio
B2: humanized 2H7 variant v511 (antibody, human IgG1, kappa, V domains shown)
VH: EVQLVESGGGLVQPGGSLRLSCAASGYTFTSYNMHWVRQAPGKGLEWVGAIYPGNGATSYNQKFKGRFTISVDKSKNTLYLQMNSLRAEDTAVYYCARVVYYSYRYWYFDVWGQGTLVTVSS
VL: DIQMTQSPSSLSASVGDRVTITCRASSSVSYLHWYQQKPGKAPKPLIYAPSNLASGVPSRFSGSGSGTDFTLTISSLQPEDFATYYCQQWAFNPPTFGQGTKVEIKR
notes: also called 2H7.v511
B3: humanized anti-CD20 antibody 2H7.v16 (antibody, human IgG1, kappa)
heavy: not shown
light: DIQMTQSPSSLSASVGDRVTITCRASSSVSYMHWYQQKPGKAPKPLIYAPSNLASGVPSRFSGSGSGTDFTLTISSLQPEDFATYYCQQWSFNPPTFGQGTKVEIKRTVAAPSVFIFPPSDEQLKSGTASVVCLLNNFYPREAKVQWKVDNALQSGNSQESVTEQDSKDSTYSLSSTLTLSKADYEKHKVYACEVTHQGLSSPVTKSFNRGEC
notes: Human IgG1, expressed in 293 cells; also called humanized anti-CD20 IgG; humanized 2H7

What was measured:
[1] = molecular target: T1, humanized anti-CD20 antibody 2H7.v31; test: ELISA, 8A3 coated on plate, anti-human IgG Fc-HRP detection
T1 construct: The L chain is the same as for 2H7.v16

[2] = molecular target: B3; test: as above
[3] = molecular target: B2; test: sandwich ELISA, 8C5 coat, biotinylated 8A3 detection, mouse serum
[4] = molecular target: B1; test: sandwich ELISA in mouse serum, 8C5 coat + 2H7 + 8A3-bio; the signal needs binding to both 8C5 and 8A3
[5] = molecular target: B1; test: ELISA, plate coated with 8A3, serially diluted antibody, detection with goat anti-human IgG Fc-HRP

## B1
[1]
  binding result: binds
[2]
  binding result: binds
[3]
  binding result: binds

## B2
[4]
  binding result: binds

## B3
[5]
  binding result: binds

Reference: US20070015228A1 (Genentech, published 2007)
